The text below walks through data of patent US5807729A, “Metalloprotease having increased activity” (Novo Nordisk A/S, priority 1995, dated 1998).

For series [1], the system named is FTC-labeled casein. Kind of series: pH profile, FTC-casein hydrolysis. Format: biochemical. The protocol: Purified p45 metalloprotease (10 microliters, 0.005 mg/ml) is added to 30 microliters of Universal pH buffer (pH 5-11.5), and 20 microliters of FTC-labeled casein are incubated at 37° C. for 1-hour. 150 microliters of 5% TCA is added to acidify and precipitate casein (1-hour at room temperature). […] Samples are then analyzed on the fluorimeter (slit width=2.5 nm; excitation freq.=490 nm; emission freq.=525 nm; integration time=2 sec).

Series [2] concerns pro-trypsin-like F. oxysporum protease. Kind of series: Processing of pro-trypsin-like F. oxysporum protease to active trypsin-like protease.
Procedure: Activatable pro-trypsin-like F. oxysporum protease is determined in microtiter wells as released trypsin-like F. oxysporum protease (tryptic) activity from pro-trypsin-like F. oxysporum protease after a 40 minute pre-incubation at room temperature with purified Fusarium oxysporum metalloprotease (approximately 6 ug).
Processed pro-trypsin-like F. oxysporum protease(i.e. mature trypsin-like F. oxysporum protease) activity is determined directly from microtiter plates containing the pre-incubated metalloprotease/pro-trypsin-like F. oxysporum protease cocktail (total volume=100 microliters), and 100 microliters of substrate (87 mg/ml.L-BAPNA stock in DMSO diluted 50-fold in sample buffer). Again, active trypsin-like F. oxysporum protease is determined as an increase in absorbance at 405 nm immediately after L-BAPNA addition.
Purified pro-trypsin-like F. oxysporum protease is added to fresh A. oryzae fermentation broths containing the recombinant p45 metalloprotease (approximately 90 mg/L) and incubated for either 1, 2, or 3 hours at room temperature. Levels of pro-trypsin-like F. oxysporum protease in the incubation mixtures range from 100 ug/ml to 13 mg/ml.
Purified pro-trypsin-like F. oxysporum protease (100 ug/ml) is added to various amounts of either purified recombinant p45 metalloprotease or purified B.s. metalloprotease.
For series [3], the system named is succinylated casein. Kind of series: Casein hydrolysis, succinylated casein assay (QuantiCleave, BCA, 600 nm). Format: biochemical. The protocol:
400 ul of casein solution (Pierce) is added to small test tubes along with 100 ul of protease. The tubes are vortexed and incubated at room temperature for 40 minutes. The incubation (and assay) buffer is 0.1 M borate, 2 mM CaCl2, and 10 mM dimethylglutarate, pH 6.5. At the end of the incubation, 60 microliters of trichloroacetic acid (100% w/v) is added, and the tubes are vortexed and centrifuged for 1 minute at 5000×g. 20 microliters of the resulting supernatant is placed into a microtiter plate well with 200 microliters of the BCA working reagent (Pierce). The plates are then vortexed and incubated another 30 minutes, then read at 600 nm using a Biomek 1000 microtiter plate reader.
400 microliters of casein solution (Pierce) are added to small test tubes along with 100 microliters of protease in buffer "A" (0.1M borate, 2 mM CaCl2 and 10 mM dimethylglutaric acid). At the end of the incubation, 60 microliters of trichloroacetic acid (100% w/v) is added, and the tubes are vortexed and centrifuged for 1 minute at 5000×g. 20 microliters of the resulting supernatant is placed into a microtiter plate well with 200 microliters of the BCA working reagent (Pierce). The plates are then vortexed and incubated another 30 minutes, then read at 600 nm using a Biomek 1000 microtiter plate reader.

The subject of series [4] is succinyl-Ala-Ala-Ala-p-nitroanilide. Nature of the series: Hydrolysis of succinyl-Ala-Ala-Ala-p-nitroanilide. The class given is biochemical. The source says:
Both p45 metalloprotease and a neutral zinc endopeptidase secreted by Flavobacterium meningosepticum poorly hydrolyze the substrate N-[3-(2--furyl)acryloyl]-Leu-Gly-NH2. However, the neutral zinc endopeptidase secreted by Flavobacterium meningosepticum will hydrolyze the vertebrate elastase substrate succinyl-Ala-Ala-Ala-p-nitroanilide, a substrate that thermolysin cannot hydrolyze (Table 2). Therefore, succinyl-Ala-Ala-Ala-p-nitroanilide hydrolysis by the p45 metalloprotease is investigated. […] This effect further differentiates the p45 metalloprotease from other existing metalloproteases.

The test system of series [5] is FAGLA: N-(3-[2-Furyl]Acryloyl)-Gly-Leu amide. Kind of series: FAGLA hydrolysis (345 nm). The class given is biochemical. The protocol:
The thermolytic substrate FAGLA: N-(3-[2-Furyl]Acryloyl)-Gly-Leu amide is used to further characterize the p45 metalloprotease and B.t. thermolysin. Reaction mixtures contain 100 microliters of N-(3-[2-Furyl]Acryloyl)-Gly-Leu amide (FAGLA) (2 mM) and 100 microliters of various concentrations of either thermolysin (Boehringer Mannheim) or purified p45 metalloprotease. Thermolytic activity is determined as a decrease in absorbance at 345 nm on the recording spectrometer for one minute(Shimadzu, UV160U). The linear range of the assay for thermolysin is 10-500 ug/ml thermolysin in the assay mix.

For series [6], the system named is pro-trypsin-like F. oxysporum protease. Nature of the series: Second pH profile, pro-trypsin-like F. oxysporum protease assay. The class given is biochemical, Fusarium oxysporum. The settings on record: 15 minutes, room temperature. The protocol:
A second pH profile is determined utilizing the pro-trypsin-like F. oxysporum protease assay whereby p45 metalloprotease activity is determined based on the processing of pro-trypsin-like F. oxysporum protease to active trypsin-like F. oxysporum protease Reaction mixtures contain 125 ug of purified pro-trypsin-like F. oxysporum protease and 0.13 ug of purified p45 metalloprotease (i.e. a molar ratio of pro-trypsin-likeF. oxysporum protease/ p45=1750:1) are added to "universal-buffer" solutions prepared at different pH's (i.e. pH values of 2.72, 4.11, 5.2, 6.05, 6.46, 6.98, 8.18, 9.02, 10.03, and 11.01) and the reaction mixtures are incubated for 15 minutes at room temperature. After incubation, 5 microliters are taken from each sample and added to microtiter wells containing 90 microliters of sample buffer (i.e. 0.1M borate, 2 mM CaCl2, and 10 mM DMG, pH 6.5), and 10 microliters of phosphoramidon (20 ug). […] Phosphoramidon is added to inhibit p45 activity and stop any further maturation of pro-trypsin-like F. oxysporum protease.

Series [7] relates to FTC-labeled casein. Kind of series: Thermal stability profile, FTC-casein hydrolysis. The settings on record: 15 minutes at various temperatures, Universal buffer pH 7; FIG. 9. The class given is biochemical. The protocol: Purified p45 metalloprotease or B.t. thermolysin (Boehringer Mannheim) (50 microliters, 0.1 mg/ml) are incubated at various temperatures for 15-minutes in Universal buffer, pH 7. Ten microliters of sample are then added to 30 microliters of Universal pH buffer (pH 7) and 20 microliters of FTC-labeled casein and are incubated at 37° C. for 1 hour. 150 microliters of 5% TCA is added to acidify and precipitate casein (1 hour at room temperature). […] Samples are then analyzed on the fluorimeter (slit width=2.5 nm; excitation freq.=490 nm; emission freq.=525 nm; integration time=2 sec).

The subject of series [8] is pro-trypsin-like F. oxysporum protease. Nature of the series: p45 metalloprotease pH stability. Format: biochemical, Fusarium oxysporum. As to conditions: 20 minutes pre-incubation at room temperature. The protocol:
To determine the pH stability of the recombinant p45 metalloprotease, the partially-purified p45 metalloprotease is diluted 10-fold into universal buffers at pH's of 3.5,4,4.5, 5.2, 5.64, 6, 7, 8, 9, and 10 and pre-incubated at room temperature for 20 minutes. The pre-incubated samples (10 microliters) are added to 40 microliters of buffer containing 0.1M borate, 2 mM CaCl2, and 10 mM dimethylglutarate, pH 6.5 and 50 microliters of crude A. oryzae broth containing pro-trypsin-like F. oxysporum protease and subsequently incubated another 30 minutes.

B1: p45 Metalloprotease: metalloprotease purified from Fusarium oxysporum DSM 2672 broth, 45 kDa band; also produced recombinantly in A. oryzae (protein)
chain: MRFSDSLLLIGLSSLAGAHPSRRAPNPSPLSKRGLDLEAFKLPPMAEYVPQDEVPDDVSAKVVTKRADYTETAKDLVKSTFPKATFRMVTDHYVGSNGIAHVNFKQTVNGIDIDNADFNVNIGADGEVFSYGNSFYEGKIPGPLTKRDEKDPVDALKDTVDVLSLPVEADKAKAEKKSKNHYTFTGTKGTVSKPEAKLTYLVDENKELKLTWRVETDIVDNWLLTYVNAAKTDEVVGVVDYVNEATYKVYPWGVNDPSKGSRSTVENPWNLAASEFTWLSDGSNNYTTTRGNNGIAQVNPSGGSTYLNNYRPDSPSLKFEYDYSTSTTTPTTYRDASIAQLFYTANKYHDLLYLLGFTEQAGNFQTNNNGQGGVGNDMVILNAQDGSGTNNANFATPADGQPGRMRMYLWTYSTPQRDCSFDAGVVIHEYTHGLSNRLTGGPANSGCLPGGESGGMGEGWGDFMATAIHIQSKDTRASNKVMGDWVYNNAAGIRAYPYSTSLTTNPYTYKSVNSLSGVHAIGTYWATVLYEVMWNLIDKHGKNDADEPKFNNGVPTDGKYLAMKLVVDGMSLQPCNPNMVQARDAIIDADTALTKGANKCEIWKGFAKRGLGTGAKYSASSRTESFALPSGC
With B1, in series [1], the “pH at which the protease functions optimally” value is about 9.5. Moreover, in series [1] (universal pH buffers pH 5-11.5, 37° C., 1 hour, FIG. 10), the “optimum pH for hydrolysis of FTC-casein” value turned out to be 9.5. In addition, the “Specific Activity, substrate pro-trypsin” value in series [2] was found to be 1.2 g trypsin/min*mg. For the same molecule, the “share of activatable pro-trypsin-like protease processed” value in series [2] (A. oryzae broth with approx. 90 mg/L recombinant p45, pro-trypsin 100 ug/ml to 13 mg/ml, room temperature, within 1 hour) is listed as 80-100%. For the same molecule, the “moles of pro-trypsin-like protease processed per mole of metalloprotease” value in series [2] (pro-trypsin-like protease 100 ug/ml, within 1 hr.) is “about 50 moles”. Moreover, the “Specific Activity, substrate Succinylated Casein (maximal level)” value in series [3] worked out at 0.30 O.D. The “maximum absorbance, casein hydrolysis” value in series [3] (pH 6.5, room temperature, 40 minutes, FIG. 8) was “around 0.3 O.D. units”. The “maximum absorbance / maximal hydrolyzed casein relative to the other proteases” value in series [3] (relative to thermolysin, dispase, B.s. neutral metalloprotease, listed as p45) is on record as “about 60%”. Moreover, in series [4], the “Specific Activity, substrate Ala-Ala-Ala-pNA” value was under 2 pmol pNA/min*mg. The “hydrolysis of succinyl-Ala-Ala-Ala-p-nitroanilide” value in series [4] (substrate 4.4 mM in 0.1M Tris, pH 8) was “neither, the p45 metalloprotease nor the B.s. thermolysin would hydrolyze”. Further, in series [5], the “Specific Activity, substrate FAGLA” value was 0.76 -AU/sec*mg and the “specific activity for FAGLA, times lower than that of thermolysin” value is “approximately 250 times”. The “level of processed pro-trypsin-like protease at pH 6.5 relative to the level at pH 9” value in series [6] is recorded as “approximately 24%”. Also, the “pH of maximum levels of processed pro-trypsin-like protease” value in series [6] (molar ratio pro-trypsin/p45 1750:1) is 9.5. In addition, the “optimum temperature for hydrolysis of FTC-casein” value in series [7] is 50 °C. Further, the “acceptable pH range (stability)” value in series [8] was 6.5-9. Moreover, the “pH at which most stable” value in series [8] (pH 3.5-10) amounted to 8.
